# Laboratory results published in the supplement of paper PMC7125110.
# ± gives the standard error. Fewer inactive variants are shown than the library holds.
# B1: glmS ribozyme (parent)
# chain: AUAAAAGCGCCAGAACUACAGAAAUGUAGUUGACGAGGAGGAGGUUUAUCGAAUUUUCGGCGGAUGCCUCCAAA
# Assays:
# Settings in all cases: with glucosamine-6-phosphate
# glucosamine-6-phosphate [1] = variants of: B1; assay: self-cleavage kobs at 40 uM GlcN6P; higher = faster cleavage; RNA array
# Outline: (§1)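 E. coli RNA polymerase transcribed barcoded ribozyme variants in situ on sequenced MiSeq chips, which were tracked via a hybridised Cy3 probe at 37 °C. Tiles were imaged over ~14 h after glucosamine-6-phosphate (40 μM to 10 mM) in HEPES/KCl/Mg(OAc)2 buffer was flowed in. Normalised per-tile medians were fit to one- or two-exponential decays for kobs, and kcat and KM came from weighted Michaelis–Menten fits.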
# glucosamine-6-phosphate [2] = variants of: B1; assay: self-cleavage kobs at 640 uM GlcN6P; higher = faster cleavage; RNA array
# Outline: as §1
# glucosamine-6-phosphate [3] = variants of: B1; assay: self-cleavage kobs at 160 uM GlcN6P; higher = faster cleavage; RNA array
# Outline: as §1
# glucosamine-6-phosphate [4] = variants of: B1; assay: self-cleavage kobs at 2500 uM GlcN6P; higher = faster cleavage; RNA array
# Outline: as §1
# glucosamine-6-phosphate [5] = variants of: B1; assay: self-cleavage kobs at 10000 uM GlcN6P; higher = faster cleavage; RNA array
# Outline: as §1
Variant,self-cleavage kobs at 40 uM GlcN6P (glucosamine-6-phosphate [1]) [s⁻¹],self-cleavage kobs at 640 uM GlcN6P (glucosamine-6-phosphate [2]) [s⁻¹],self-cleavage kobs at 160 uM GlcN6P (glucosamine-6-phosphate [3]) [s⁻¹],self-cleavage kobs at 2500 uM GlcN6P (glucosamine-6-phosphate [4]) [s⁻¹],self-cleavage kobs at 10000 uM GlcN6P (glucosamine-6-phosphate [5]) [s⁻¹]
U56A G62U,< 1e-05,< 1e-05,–,–,–
C8A G38U C50G,4.1e-05 ± 2e-05,–,–,–,–
G7U C58G C68G,0.000149 ± 4.5e-05,0.00042 ± 0.00015,0.000633 ± 0.00028,0.00158 ± 0.00066,0.000116 ± 2.5e-05
A6C G63C,< 1e-05,< 1e-05,–,–,< 1e-05
G7C G9C U31C G40A,< 1e-05,–,–,–,< 1e-05
G9A C10A G32A,< 1e-05,–,–,–,–
G13U G59C,< 1e-05,< 1e-05,–,–,< 1e-05
A14G C16U G41U,0.000207 ± 7.3e-05,–,–,–,0.00243 ± 0.00096
G13C A36C U46G C68A,< 1e-05,–,–,–,< 1e-05
C8G U57G C70G,0.0017 ± 0.00055,–,–,–,–
C10A G32C G41A,< 1e-05,–,–,–,–
A15C A33C A64U,< 1e-05,–,–,–,< 1e-05
A42U G62U C71G,< 1e-05,–,–,–,< 1e-05
G29C U54G G60A,< 1e-05,–,–,–,< 1e-05
G7A G13A C68U,< 1e-05,–,–,–,–
A39C U49C,< 1e-05,–,< 1e-05,–,< 1e-05
A14C A64U,< 1e-05,< 1e-05,< 1e-05,–,–
A6C C8G G51A C71U,< 1e-05,–,–,–,< 1e-05
G13A U46C C67A,< 1e-05,< 1e-05,–,–,–
G35A G66U,< 1e-05,–,< 1e-05,–,–
G32A A33U C68G C71G,0.000162 ± 3.9e-05,0.000432 ± 0.0001,–,9.26e-05 ± 3.4e-05,0.000152 ± 3.2e-05
C11G G32C G38A A42C G60C,< 1e-05,–,–,< 1e-05,–
A48U G59A,< 1e-05,< 1e-05,< 1e-05,< 1e-05,< 1e-05

Variant,self-cleavage kobs at 40 uM GlcN6P (glucosamine-6-phosphate [1]) [s⁻¹],self-cleavage kobs at 640 uM GlcN6P (glucosamine-6-phosphate [2]) [s⁻¹],self-cleavage kobs at 160 uM GlcN6P (glucosamine-6-phosphate [3]) [s⁻¹],self-cleavage kobs at 2500 uM GlcN6P (glucosamine-6-phosphate [4]) [s⁻¹],self-cleavage kobs at 10000 uM GlcN6P (glucosamine-6-phosphate [5]) [s⁻¹]
A53U C71U,0.000617 ± 6e-05,0.00728 ± 0.0012,0.00115 ± 0.0002,0.0165 ± 0.0031,0.0301 ± 0.0058
C8G A48G U54A,< 1e-05,–,–,< 1e-05,< 1e-05
A42G G63C,< 1e-05,< 1e-05,< 1e-05,< 1e-05,< 1e-05
U31A C61U,< 1e-05,< 1e-05,< 1e-05,–,–
A39U U55A U56C,2.36e-05 ± 8.3e-06,–,–,–,0.00213 ± 0.00023
G29U U31A A42U,< 1e-05,–,–,–,–
G13A C16A A52U,< 1e-05,–,–,< 1e-05,< 1e-05
U54A C61U C71G,< 1e-05,–,–,–,–
U47G C58A G59A C70A,4.75e-05 ± 1.8e-05,–,–,–,–
A33C G38A,< 1e-05,< 1e-05,< 1e-05,< 1e-05,< 1e-05
G13C U47C,< 1e-05,–,< 1e-05,–,–
A42G U49C,< 1e-05,< 1e-05,< 1e-05,< 1e-05,< 1e-05
G38U A52G U69G,0.000147 ± 5.7e-05,–,–,–,7.13e-05 ± 1.9e-05
G41C,1.75e-05 ± 1.7e-06,0.000131 ± 3.6e-06,4.15e-05 ± 1.9e-06,0.000529 ± 4.7e-05,0.00255 ± 0.00067
G7U U55G,< 1e-05,–,< 1e-05,–,< 1e-05
C34G G40A U55G,< 1e-05,–,–,–,–
A6C A42C,< 1e-05,< 1e-05,< 1e-05,–,< 1e-05
G35U A64C C68A,< 1e-05,–,–,–,–
U55G C67G,0.000127 ± 1.4e-05,0.000819 ± 0.00012,0.000234 ± 5.1e-05,0.000472 ± 0.0001,0.00597 ± 0.00099
C67G C70G,< 1e-05,–,–,–,< 1e-05
A36C G37C G41C C50A A52C C71U,< 1e-05,–,–,–,–
G9U G29U A42G U65G,< 1e-05,–,–,–,< 1e-05
A33G A48G C71U,< 1e-05,–,< 1e-05,< 1e-05,< 1e-05

Variant,self-cleavage kobs at 40 uM GlcN6P (glucosamine-6-phosphate [1]) [s⁻¹],self-cleavage kobs at 640 uM GlcN6P (glucosamine-6-phosphate [2]) [s⁻¹],self-cleavage kobs at 160 uM GlcN6P (glucosamine-6-phosphate [3]) [s⁻¹],self-cleavage kobs at 2500 uM GlcN6P (glucosamine-6-phosphate [4]) [s⁻¹],self-cleavage kobs at 10000 uM GlcN6P (glucosamine-6-phosphate [5]) [s⁻¹]
G37U G41A,< 1e-05,< 1e-05,< 1e-05,–,< 1e-05
A6G A15C C16U,< 1e-05,–,–,–,4.37e-05 ± 1.5e-05
G13A G63U,< 1e-05,< 1e-05,< 1e-05,< 1e-05,< 1e-05
C8U A15G G38U C61G C68G,0.00048 ± 0.00015,–,–,–,0.000181 ± 4.8e-05
G35C A42U U45C G59U,< 1e-05,–,–,–,–
G7U C16G,< 1e-05,< 1e-05,–,–,< 1e-05
G7C G38U C70G,< 1e-05,–,–,–,–
A42U G63U,< 1e-05,–,< 1e-05,< 1e-05,< 1e-05
C11G G37C G40U G51A U65C,< 1e-05,–,–,–,< 1e-05
C11G G35C,< 1e-05,< 1e-05,< 1e-05,< 1e-05,< 1e-05
G32C G38C,< 1e-05,< 1e-05,< 1e-05,–,–
A12U G41C C58A,< 1e-05,–,–,< 1e-05,< 1e-05
G35A U56A G63A,< 1e-05,–,–,–,< 1e-05
G40C U49C,< 1e-05,< 1e-05,–,< 1e-05,< 1e-05
G9C U54A U56G G66A,< 1e-05,–,–,–,–
G41U G60C,< 1e-05,< 1e-05,< 1e-05,< 1e-05,< 1e-05
G51A U69C,< 1e-05,–,–,–,< 1e-05
G32C A36C G37C,< 1e-05,–,–,–,–
C8G C11G,< 1e-05,–,< 1e-05,–,< 1e-05
C10A G66U,< 1e-05,–,< 1e-05,–,–
U49C U57C,< 1e-05,< 1e-05,< 1e-05,–,< 1e-05
A39G C68G,2.98e-05 ± 1.4e-05,0.000165 ± 5e-05,6.43e-05 ± 1.3e-05,0.000286 ± 4.7e-05,0.000116 ± 1.2e-05
U47A C58U,< 1e-05,–,–,–,6e-05 ± 2.1e-05

Variant,self-cleavage kobs at 40 uM GlcN6P (glucosamine-6-phosphate [1]) [s⁻¹],self-cleavage kobs at 640 uM GlcN6P (glucosamine-6-phosphate [2]) [s⁻¹],self-cleavage kobs at 160 uM GlcN6P (glucosamine-6-phosphate [3]) [s⁻¹],self-cleavage kobs at 2500 uM GlcN6P (glucosamine-6-phosphate [4]) [s⁻¹],self-cleavage kobs at 10000 uM GlcN6P (glucosamine-6-phosphate [5]) [s⁻¹]
U46C A64U,< 1e-05,–,–,–,4.69e-05 ± 1.5e-05
A36G C67U,< 1e-05,–,–,–,–
G13U G43A C50A C61U C68U,< 1e-05,–,–,–,–
C19A A53U,0.000466 ± 8.9e-05,0.00276 ± 0.0012,–,–,0.0123 ± 0.0028
A14G C34A G44U C68U,< 1e-05,–,< 1e-05,–,–
A6C G41C G43A A48G,< 1e-05,–,–,–,–
A42G G62A,< 1e-05,< 1e-05,< 1e-05,< 1e-05,< 1e-05
C70G,0.000246 ± 5.2e-05,0.0014 ± 0.00021,0.000401 ± 9.4e-05,0.000576 ± 4.7e-05,0.00395 ± 0.00093
C10A A33C A64C,< 1e-05,–,–,< 1e-05,< 1e-05
C8U G9U,< 1e-05,< 1e-05,< 1e-05,< 1e-05,–
C8U G9A,< 1e-05,< 1e-05,< 1e-05,< 1e-05,< 1e-05
G7C A15U G59C,< 1e-05,< 1e-05,< 1e-05,< 1e-05,< 1e-05
C58A G62C,< 1e-05,< 1e-05,< 1e-05,< 1e-05,–
A6G G44U,< 1e-05,< 1e-05,–,< 1e-05,< 1e-05
A12G C61A C70U,< 1e-05,–,–,–,< 1e-05
C34A,< 1e-05,< 1e-05,< 1e-05,< 1e-05,–
C11A U49C,< 1e-05,–,< 1e-05,< 1e-05,< 1e-05
A42G C68U,0.000563 ± 7.3e-05,0.00237 ± 0.00041,0.000735 ± 0.00016,–,0.0168 ± 0.0034
G41C G43U,< 1e-05,< 1e-05,< 1e-05,< 1e-05,< 1e-05
C34A G41C A53G U54A U56G,< 1e-05,–,–,–,< 1e-05
G32U A33C U45G U65A,< 1e-05,< 1e-05,–,< 1e-05,< 1e-05
